B1: Ceroid-lipofuscinosis neuronal protein 6 (Homo sapiens), Q9NWW5 (parent)
chain: MEATRRRQHLGATGGPGAQLGASFLQARHGSVSADEAARTAPFHLDLWFYFTLQNWVLDFGRPIAMLVFPLEWFPLNKPSVGDYFHMAYNVITPFLLLKLIERSPRTLPRSITYVSIIIFIMGASIHLVGDSVNHRLLFSGYQHHLSVRENPIIKNLKPETLIDSFELLYYYDEYLGHCMWYIPFFLILFMYFSGCFTASKAESLIPGPALLLVAPSGLYYWYLVTEGQIFILFIFTFFAMLALVLHQKRKRLFLDSNGLFLFSSFALTLLLVALWVAWLWNDPVLRKKYPGVIYVPEPWAFYTLHVSSRH

Variants of: B1
Conditions: with stx1a_human STX1A
With MEATRRRQHLGATGGPGAQLGASFLQARHGSVSADEAARTAPFHLDFWFYFTLQNWVLDFGRPIAMLVFPLEWFPLNKPSVGDYFHMAYNVITPFLLLKLIERSPRTLPRSITYVSIIIFIMGASIHLVGDSVNHRLLFSGYQHHLSVRENPIIKNLKPETLIDSFELLYYYDEYLGHCMWYIPFFLILFMYFSGCFTASKAESLIPGPALLLVAPSGLYYWYLVTEGQIFILFIFTFFAMLALVLHQKRKRLFLDSNGLFLFSSFALTLLLVALWVAWLWNDPVLRKKYPGVIYVPEPWAFYTLHVSSRH [L47F] the “effect of a mutation on the interaction” value was “with no effect”.
In the case of R103Q, the “effect of a mutation on the interaction” value is reported as “with no effect”.

Variants of: B1
Conditions: with ar13b_human ARL13B
For MEATRRRQHLGATGGPGAQLGASFLQARHGSVSADEAARTAPFHLDFWFYFTLQNWVLDFGRPIAMLVFPLEWFPLNKPSVGDYFHMAYNVITPFLLLKLIERSPRTLPRSITYVSIIIFIMGASIHLVGDSVNHRLLFSGYQHHLSVRENPIIKNLKPETLIDSFELLYYYDEYLGHCMWYIPFFLILFMYFSGCFTASKAESLIPGPALLLVAPSGLYYWYLVTEGQIFILFIFTFFAMLALVLHQKRKRLFLDSNGLFLFSSFALTLLLVALWVAWLWNDPVLRKKYPGVIYVPEPWAFYTLHVSSRH [L47F], the “effect of a mutation on the interaction” value was “with no effect”.

Variants of: B1
Conditions: with cd79a_human CD79A
For MEATRRRQHLGATGGPGAQLGASFLQARHGSVSADEAARTAPFHLDFWFYFTLQNWVLDFGRPIAMLVFPLEWFPLNKPSVGDYFHMAYNVITPFLLLKLIERSPRTLPRSITYVSIIIFIMGASIHLVGDSVNHRLLFSGYQHHLSVRENPIIKNLKPETLIDSFELLYYYDEYLGHCMWYIPFFLILFMYFSGCFTASKAESLIPGPALLLVAPSGLYYWYLVTEGQIFILFIFTFFAMLALVLHQKRKRLFLDSNGLFLFSSFALTLLLVALWVAWLWNDPVLRKKYPGVIYVPEPWAFYTLHVSSRH [L47F], the “effect of a mutation on the interaction” value was “with no effect”.

Variants of: B1
Conditions: with ki2l3_human KIR2DL3, P43628
Chain of ki2l3_human KIR2DL3, P43628 (P43628 whole entry): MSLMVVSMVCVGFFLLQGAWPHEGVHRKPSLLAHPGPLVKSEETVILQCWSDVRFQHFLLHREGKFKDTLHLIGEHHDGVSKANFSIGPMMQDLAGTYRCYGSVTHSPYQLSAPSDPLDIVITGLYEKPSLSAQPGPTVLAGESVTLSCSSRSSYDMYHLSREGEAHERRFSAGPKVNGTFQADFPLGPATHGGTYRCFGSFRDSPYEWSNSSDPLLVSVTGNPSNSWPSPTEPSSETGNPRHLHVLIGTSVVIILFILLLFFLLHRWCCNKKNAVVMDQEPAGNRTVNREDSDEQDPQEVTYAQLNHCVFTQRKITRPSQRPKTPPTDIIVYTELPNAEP
For MEATRRRQHLGATGGPGAQLGASFLQARHGSVSADEAARTAPFHLDFWFYFTLQNWVLDFGRPIAMLVFPLEWFPLNKPSVGDYFHMAYNVITPFLLLKLIERSPRTLPRSITYVSIIIFIMGASIHLVGDSVNHRLLFSGYQHHLSVRENPIIKNLKPETLIDSFELLYYYDEYLGHCMWYIPFFLILFMYFSGCFTASKAESLIPGPALLLVAPSGLYYWYLVTEGQIFILFIFTFFAMLALVLHQKRKRLFLDSNGLFLFSSFALTLLLVALWVAWLWNDPVLRKKYPGVIYVPEPWAFYTLHVSSRH [L47F], the “effect of a mutation on the interaction” value was “with no effect”.

Variants of: B1
Conditions: with lrc25_human LRRC25, Q8N386
Chain of lrc25_human LRRC25, Q8N386 (Q8N386 whole entry): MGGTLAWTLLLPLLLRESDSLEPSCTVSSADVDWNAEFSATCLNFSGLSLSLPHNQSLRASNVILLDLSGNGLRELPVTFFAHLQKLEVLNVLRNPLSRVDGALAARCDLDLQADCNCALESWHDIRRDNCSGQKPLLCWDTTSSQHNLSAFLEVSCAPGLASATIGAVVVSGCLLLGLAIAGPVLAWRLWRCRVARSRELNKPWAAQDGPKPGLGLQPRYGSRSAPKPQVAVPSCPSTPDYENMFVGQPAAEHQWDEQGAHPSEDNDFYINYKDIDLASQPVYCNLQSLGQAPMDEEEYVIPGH
MEATRRRQHLGATGGPGAQLGASFLQARHGSVSADEAARTAPFHLDFWFYFTLQNWVLDFGRPIAMLVFPLEWFPLNKPSVGDYFHMAYNVITPFLLLKLIERSPRTLPRSITYVSIIIFIMGASIHLVGDSVNHRLLFSGYQHHLSVRENPIIKNLKPETLIDSFELLYYYDEYLGHCMWYIPFFLILFMYFSGCFTASKAESLIPGPALLLVAPSGLYYWYLVTEGQIFILFIFTFFAMLALVLHQKRKRLFLDSNGLFLFSSFALTLLLVALWVAWLWNDPVLRKKYPGVIYVPEPWAFYTLHVSSRH [L47F] was tested, and the “effect of a mutation on the interaction” value was “with no effect”.

Variants of: B1
Conditions: with tm139_human TMEM139, Q8IV31
Chain of tm139_human TMEM139, Q8IV31 (Q8IV31 whole entry): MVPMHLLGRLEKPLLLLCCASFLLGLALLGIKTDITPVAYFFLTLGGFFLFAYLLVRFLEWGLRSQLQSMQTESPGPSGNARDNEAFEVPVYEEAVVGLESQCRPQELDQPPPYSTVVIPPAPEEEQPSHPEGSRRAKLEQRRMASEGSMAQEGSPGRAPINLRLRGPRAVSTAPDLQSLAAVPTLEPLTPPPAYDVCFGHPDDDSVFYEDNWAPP
With MEATRRRQHLGATGGPGAQLGASFLQARHGSVSADEAARTAPFHLDFWFYFTLQNWVLDFGRPIAMLVFPLEWFPLNKPSVGDYFHMAYNVITPFLLLKLIERSPRTLPRSITYVSIIIFIMGASIHLVGDSVNHRLLFSGYQHHLSVRENPIIKNLKPETLIDSFELLYYYDEYLGHCMWYIPFFLILFMYFSGCFTASKAESLIPGPALLLVAPSGLYYWYLVTEGQIFILFIFTFFAMLALVLHQKRKRLFLDSNGLFLFSSFALTLLLVALWVAWLWNDPVLRKKYPGVIYVPEPWAFYTLHVSSRH [L47F] the “effect of a mutation on the interaction” value was “with no effect”.

From IntAct's records for PubMed 32296183
